According to article PMC11746146 (Nature Structural & Molecular Biology, 2024):

How the values were obtained:
[1] = molecular target: human guanylate-binding protein 1 (GBP1), non-farnesylated (human) (UniProt P32455); experiment: SEC-MALS; protein at 15 µM with the GTP transition-state mimic GDP·AlF3, incubated 5–10 min at room temperature; Superdex200 Increase 10/300 GL; 50 mM HEPES pH 7.4, 150 mM NaCl, 0.5 mM TCEP or DTT
[2] = molecular target: T1, human guanylate-binding protein 1 (GBP1), non-farnesylated (human, UniProt P32455); experiment: SEC-MALS; nanobody mixed with GBP1 or GBP1F, in the presence and absence of GDP·AlF3; SDS–PAGE (and western blot for GFP–Nb74) of peak fractions; conditions: both partners purified
T1 construct: human GBP1, UniProt P32455, codon-optimized synthetic DNA in pETM14; called full-length in the results; Dimer studied with GDP·AlF3 (200 µM GDP, 10 mM NaF, 300 µM AlCl3, 5 mM MgCl2); also called hGBP1; WT GBP1; source: E. coli BL21(DE3), purified (TALON, 3C cleavage, SEC); not shown: His6, N-terminal, cleaved

[3] = molecular target: T2, farnesylated human GBP1 (GBP1F) (human, UniProt P32455, C-terminal C15-farnesyl moiety (CaaX isoprenylation motif)); experiment: as above; conditions: both partners purified
T2 construct: human GBP1, UniProt P32455, from pETM14-GBP1, co-translationally farnesylated; also called GBP1F–GDP·AlF3; WT GBP1F; source: E. coli BL21(DE3), co-expressed with FNTA-FNTB, purified (TALON, 3C cleavage, HIC, SEC); not shown: His6, N-terminal, cleaved

[4] = molecular target: the molecule itself; experiment: mass photometry; Refeyn OneMP; samples with GDP·AlF3 diluted to 15 nM in 50 mM HEPES pH 7.5, 150 mM NaCl
[5] = molecular target: the molecule itself; experiment: SEC-MALS; protein at 15 µM with the GTP transition-state mimic GDP·AlF3, incubated 5–10 min at room temperature; Superdex200 Increase 10/300 GL; 50 mM HEPES pH 7.4, 150 mM NaCl, 0.5 mM TCEP or DTT

human guanylate-binding protein 1 (GBP1), non-farnesylated (from UniProt P32455 1-592) (natural protein)
stoichiometry N [1]: 2

B1: nanobody 74 (Nb74) (VHH)
VHH: QVQLVESGGGLVQAGDSLRLSCAASGRALGNYYVGWFSQAPGKEREFVAAISWSGSSTFYADSVKGRFTISRDNAKNTVDLQMNSLKPEDTAVYYCAANPTAKLGSSWYQTPREFGYWGQGTQVTVSS
notes: llama nanobody selected by phage display; the entry PDB 8CQB / EMD-16794 is headed GBP1–GDP·AlF3–Nb74, but the deposited model is called the GBP1 dimer (956 protein residues), so Nb74 may not be in it; Raised in llamas immunized with monomeric GBP1, GBP1F or GDP·AlF3-stabilized dimeric GBP1; source: E. coli WK6 (su−), periplasmic extract, purified (Ni-NTA)
stoichiometry N [2]: 1 molar ratio | stoichiometry N [3]: 1

B2: GBP1 D308S, non-farnesylated (natural protein, human, UniProt P32455 1-592, looked up)
chain: MASEIHMTGPMCLIENTNGRLMANPEALKILSAITQPMVVVAIVGLYRTGKSYLMNKLAGKKKGFSLGSTVQSHTKGIWMWCVPHPKKPGHILVLLDTEGLGDVEKGDNQNDSWIFALAVLLSSTFVYNSIGTINQQAMDQLYYVTELTHRIRSKSSPDENENEVEDSADFVSFFPDFVWTLRDFSLDLEADGQPLTPDEYLTYSLKLKKGTSQKDETFNLPRLCIRKFFPKKKCFVFDRPVHRRKLAQLEKLQDEELDPEFVQQVADFCSYIFSNSKTKTLSGGIQVNGPRLESLVLTYVNAISSGSLPCMENAVLALAQIENSAAVQKAIAHYEQQMGQKVQLPTETLQELLDLHRDSEREAIEVFIRSSFKDVDHLFQKELAAQLEKKRDDFCKQNQEASSDRCSALLQVIFSPLEEEVKAGIYSKPGGYRLFVQKLQDLKKKYYEEPRKGIQAEEILQTYLKSKESMTDAILQTDQTLTEKEKEIEVERVKAESAQASAKMLQEMQRKNEQMMEQKERSYQEHLKQLTEKMENDRVQLLKEQERTLALKLQEQEQLLKEGFQKESRIMKNEIQDLQTKMRRRKACTIS
notes: human GBP1, UniProt P32455, variant made from pETM14-GBP1 by QuikChange mutagenesis; source: E. coli BL21(DE3), purified (TALON, 3C cleavage, SEC); not shown: His6, N-terminal, cleaved
binding result [4]: binds

B3: GBP1F R584–586A (natural protein, human, UniProt P32455 1-592, looked up)
chain: MASEIHMTGPMCLIENTNGRLMANPEALKILSAITQPMVVVAIVGLYRTGKSYLMNKLAGKKKGFSLGSTVQSHTKGIWMWCVPHPKKPGHILVLLDTEGLGDVEKGDNQNDSWIFALAVLLSSTFVYNSIGTINQQAMDQLYYVTELTHRIRSKSSPDENENEVEDSADFVSFFPDFVWTLRDFSLDLEADGQPLTPDEYLTYSLKLKKGTSQKDETFNLPRLCIRKFFPKKKCFVFDRPVHRRKLAQLEKLQDEELDPEFVQQVADFCSYIFSNSKTKTLSGGIQVNGPRLESLVLTYVNAISSGDLPCMENAVLALAQIENSAAVQKAIAHYEQQMGQKVQLPTETLQELLDLHRDSEREAIEVFIRSSFKDVDHLFQKELAAQLEKKRDDFCKQNQEASSDRCSALLQVIFSPLEEEVKAGIYSKPGGYRLFVQKLQDLKKKYYEEPRKGIQAEEILQTYLKSKESMTDAILQTDQTLTEKEKEIEVERVKAESAQASAKMLQEMQRKNEQMMEQKERSYQEHLKQLTEKMENDRVQLLKEQERTLALKLQEQEQLLKEGFQKESRIMKNEIQDLQTKMAAAKACTIS
modifications: C-terminal C15-farnesyl moiety (CaaX isoprenylation motif)
notes: human GBP1, UniProt P32455, polybasic motif R584–R586 changed to alanines, farnesylated; also called GBP1F R584-R586; source: E. coli BL21(DE3), purified; not shown: His6, N-terminal, cleaved
binding result [5]: binds

B4: GBP1 Y143A, non-farnesylated (natural protein, human, UniProt P32455 1-592, looked up)
chain: MASEIHMTGPMCLIENTNGRLMANPEALKILSAITQPMVVVAIVGLYRTGKSYLMNKLAGKKKGFSLGSTVQSHTKGIWMWCVPHPKKPGHILVLLDTEGLGDVEKGDNQNDSWIFALAVLLSSTFVYNSIGTINQQAMDQLAYVTELTHRIRSKSSPDENENEVEDSADFVSFFPDFVWTLRDFSLDLEADGQPLTPDEYLTYSLKLKKGTSQKDETFNLPRLCIRKFFPKKKCFVFDRPVHRRKLAQLEKLQDEELDPEFVQQVADFCSYIFSNSKTKTLSGGIQVNGPRLESLVLTYVNAISSGDLPCMENAVLALAQIENSAAVQKAIAHYEQQMGQKVQLPTETLQELLDLHRDSEREAIEVFIRSSFKDVDHLFQKELAAQLEKKRDDFCKQNQEASSDRCSALLQVIFSPLEEEVKAGIYSKPGGYRLFVQKLQDLKKKYYEEPRKGIQAEEILQTYLKSKESMTDAILQTDQTLTEKEKEIEVERVKAESAQASAKMLQEMQRKNEQMMEQKERSYQEHLKQLTEKMENDRVQLLKEQERTLALKLQEQEQLLKEGFQKESRIMKNEIQDLQTKMRRRKACTIS
notes: as for B2
binding result [4]: binds

B5: GBP1 K466D, non-farnesylated (natural protein, human, UniProt P32455 1-592, looked up)
chain: MASEIHMTGPMCLIENTNGRLMANPEALKILSAITQPMVVVAIVGLYRTGKSYLMNKLAGKKKGFSLGSTVQSHTKGIWMWCVPHPKKPGHILVLLDTEGLGDVEKGDNQNDSWIFALAVLLSSTFVYNSIGTINQQAMDQLYYVTELTHRIRSKSSPDENENEVEDSADFVSFFPDFVWTLRDFSLDLEADGQPLTPDEYLTYSLKLKKGTSQKDETFNLPRLCIRKFFPKKKCFVFDRPVHRRKLAQLEKLQDEELDPEFVQQVADFCSYIFSNSKTKTLSGGIQVNGPRLESLVLTYVNAISSGDLPCMENAVLALAQIENSAAVQKAIAHYEQQMGQKVQLPTETLQELLDLHRDSEREAIEVFIRSSFKDVDHLFQKELAAQLEKKRDDFCKQNQEASSDRCSALLQVIFSPLEEEVKAGIYSKPGGYRLFVQKLQDLKKKYYEEPRKGIQAEEILQTYLDSKESMTDAILQTDQTLTEKEKEIEVERVKAESAQASAKMLQEMQRKNEQMMEQKERSYQEHLKQLTEKMENDRVQLLKEQERTLALKLQEQEQLLKEGFQKESRIMKNEIQDLQTKMRRRKACTIS
notes: as for B2
binding result [4]: binds
